First the molecules themselves.
B1: C-terminally Halo-tagged full-length zyxin (zyxin-Halo) (natural protein, human, UniProt Q15942 1-572, looked up)
chain: MAAPRPSPAISVSVSAPAFYAPQKKFGPVVAPKPKVNPFRPGDSEPPPAPGAQRAQMGRVGEIPPPPPEDFPLPPPPLAGDGDDAEGALGGAFPPPPPPIEESFPPAPLEEEIFPSPPPPPEEEGGPEAPIPPPPQPREKVSSIDLEIDSLSSLLDDMTKNDPFKARVSSGYVPPPVATPFSSKSSTKPAAGGTAPLPPWKSPSSSQPLPQVPAPAQSQTQFHVQPQPQPKPQVQLHVQSQTQPVSLANTQPRGPPASSPAPAPKFSPVTPKFTPVASKFSPGAPGGSGSQPNQKLGHPEALSAGTGSPQPPSFTYAQQREKPRVQEKQHPVPPPAQNQNQVRSPGAPGPLTLKEVEELEQLTQQLMQDMEHPQRQNVAVNELCGRCHQPLARAQPAVRALGQLFHIACFTCHQCAQQLQGQQFYSLEGAPYCEGCYTDTLEKCNTCGEPITDRMLRATGKAYHPHCFTCVVCARPLEGTSFIVDQANRPHCVPDYHKQYAPRCSVCSEPIMPEPGRDETVRVVALDKNFHMKCYKCEDCGKPLSIEADDNGCFPLDGHVLCRKCHTARAQT
modifications: Janelia Fluor 646 Halo-ligand conjugated to the Halo tag
notes: zyxin, human, full length; pCAG vector with a C-terminal 3C protease cleavage site and eGFP tag; eGFP removed with 3C protease on the resin; also called zyxin^WT; zyxin-Halo:JF646; source: HEK293F, transfected, purified (anti-GFP nanobody resin, 3C protease, Mono Q, SEC); not shown: Halo, C-terminal, kept; eGFP, C-terminal, cleaved
B2: C-terminally Halo-tagged VASP (VASP-Halo) (natural protein, human, UniProt P50552 1-380, looked up)
chain: MSETVICSSRATVMLYDDGNKRWLPAGTGPQAFSRVQIYHNPTANSFRVVGRKMQPDQQVVINCAIVRGVKYNQATPNFHQWRDARQVWGLNFGSKEDAAQFAAGMASALEALEGGGPPPPPALPTWSVPNGPSPEEVEQQKRQQPGPSEHIERRVSNAGGPPAPPAGGPPPPPGPPPPPGPPPPPGLPPSGVPAAAHGAGGGPPPAPPLPAAQGPGGGGAGAPGLAAAIAGAKLRKVSKQEEASGGPTAPKAESGRSGGGGLMEEMNAMLARRRKATQVGEKTPKDESANQEEPEARVPAQSESVRRPWEKNSTTLPRMKSSSSVTTSETQPCTPSSSDYSDLQRVKQELLEEVKKELQKVKEEIIEAFVQELRKRGSP
modifications: Janelia Fluor 549 Halo-ligand conjugated to the Halo tag
notes: VASP (vasodilator-stimulated phosphoprotein), human; also called VASP^WT; VASP-Halo:JF549; source: E. coli Rosetta2(DE3), purified (Ni-NTA, StrepTrap XT, 3C protease, SEC); not shown: Strep-Tag II, N-terminal, cleaved; Halo, C-terminal, kept; 6xHis-Tag, C-terminal, cleaved

Common to all, as to settings: both partners purified
For assay [1], the target named is T1, C-terminally Halo-tagged ɑ-actinin-1 (ɑ-actinin-Halo) (human, UniProt P12814 1-892, Janelia Fluor 549 Halo-ligand (TIRF assays) or Alexa Fluor 488 Halo-ligand (droplet assays) conjugated to the Halo tag; unlabeled in the bundle assays).
T1 construct: ɑ-actinin-1, human; also called ɑ-actinin^WT; ɑ-actinin-Halo:JF549; source: E. coli Rosetta2(DE3), purified (Ni-NTA, TEV protease, HiTrap Q HP, SEC); not shown: 6xHis-Tag, N-terminal, cleaved; Halo, C-terminal, kept
As to the kind of experiment: TIRF microscopy, force reconstitution assay with purified proteins; immobilised myosins, 30% ATTO 488-labeled F-actin, 25 nM (or 250 nM) zyxin-Halo:JF646 and 50 nM ɑ-actinin-Halo:JF549 in MBOS, +ATP (myosin forces); room temperature.

Assay [2] addresses B1. As to the kind of experiment: droplet co-partitioning (iSIM fluorescence microscopy); zyxin construct, VASP and ɑ-actinin mixed together in MBOS with 3% PEG 8K, room temperature; small clusters also without PEG 8K at native cellular concentrations.
Assay [3] concerns the target B2. The description is as above.

T1 sequence (P12814 whole entry): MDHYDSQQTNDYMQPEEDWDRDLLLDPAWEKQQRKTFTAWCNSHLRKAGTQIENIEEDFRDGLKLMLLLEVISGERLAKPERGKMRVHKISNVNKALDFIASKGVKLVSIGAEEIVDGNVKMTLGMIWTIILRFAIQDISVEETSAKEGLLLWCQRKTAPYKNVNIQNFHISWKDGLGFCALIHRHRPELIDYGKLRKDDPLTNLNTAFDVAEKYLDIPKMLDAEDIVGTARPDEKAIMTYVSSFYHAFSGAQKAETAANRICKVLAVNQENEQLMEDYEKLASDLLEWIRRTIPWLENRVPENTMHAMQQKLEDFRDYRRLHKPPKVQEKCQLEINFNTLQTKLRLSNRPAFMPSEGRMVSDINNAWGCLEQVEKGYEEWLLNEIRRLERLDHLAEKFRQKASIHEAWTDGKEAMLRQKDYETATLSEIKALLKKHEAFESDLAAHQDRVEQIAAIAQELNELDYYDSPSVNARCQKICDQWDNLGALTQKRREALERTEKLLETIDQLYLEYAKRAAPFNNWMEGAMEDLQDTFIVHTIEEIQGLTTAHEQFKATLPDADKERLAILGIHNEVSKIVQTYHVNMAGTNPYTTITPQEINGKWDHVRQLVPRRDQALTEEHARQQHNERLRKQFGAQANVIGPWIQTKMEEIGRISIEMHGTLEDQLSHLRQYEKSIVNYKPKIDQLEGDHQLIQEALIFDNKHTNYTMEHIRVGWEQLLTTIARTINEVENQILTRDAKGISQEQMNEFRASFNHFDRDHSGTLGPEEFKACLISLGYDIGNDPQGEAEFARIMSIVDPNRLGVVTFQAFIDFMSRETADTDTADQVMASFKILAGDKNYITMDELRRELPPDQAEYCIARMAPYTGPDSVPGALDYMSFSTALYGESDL

Consider B1, for which the binding result in assay [1] is reported as “binds”.

Take B2: the binding result in assay [2] is “binds”.

B3: minimal zyxin construct with the N-terminal binding motifs (amino acids 1–160), Halo-tagged (domain or fragment, human, UniProt Q15942 1-160, looked up)
chain: MAAPRPSPAISVSVSAPAFYAPQKKFGPVVAPKPKVNPFRPGDSEPPPAPGAQRAQMGRVGEIPPPPPEDFPLPPPPLAGDGDDAEGALGGAFPPPPPPIEESFPPAPLEEEIFPSPPPPPEEEGGPEAPIPPPPQPREKVSSIDLEIDSLSSLLDDMTK
modifications: Janelia Fluor 646 Halo-ligand conjugated to the Halo tag
notes: zyxin, human, amino acids 1–160; also called zyxin^N-term; source: HEK293F, transfected, purified (anti-GFP nanobody resin, 3C protease, Mono Q, SEC); not shown: Halo, C-terminal, kept; eGFP, C-terminal, cleaved
Take B3: the binding result in assay [3] is on record as “binds”.

The record behind these values is doi:10.1101/2024.05.17.594765, “Force-activated zyxin assemblies coordinate actin nucleation and crosslinking to orchestrate stress fiber repair” (bioRxiv, 2024).
